# Measurements from the supplement of paper PMC12042874.
# ± gives the uncertainty stated by the source.
# Assay: amyloid nucleation score (Sup35N fusion, yeast selection) (log enrichment); library NNK2; higher = more nucleation; inactive = no reads after selection
# How it was run: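 Yeast lacking psi expressed peptides of 20 random codons fused to Sup35N, received 100 μM copper sulfate for 24 hours, and were then grown for 7 days at 30°C on medium lacking adenine and uracil. Illumina sequencing of input and output plasmid inserts provided the reads. Nucleation scores are DiMSum log enrichments of output over input, centred on the mode of non-aggregating sequences. Any sequence with under 100 input reads was excluded.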
row,Substance,amyloid nucleation score
1,ANSVNRSKDCTYFVFHRF,5.436 ± 0.054
2,ANWPR,-0.391 ± 0.79
3,APANVRWLNFSGLDSNGCPY,inactive
4,APHGLRKHSIMVAGMLRSVG,2.68 ± 0.14
5,APSVLGAYQIHRGRVHVLSA,0.494 ± 0.29
6,APTCSKCCIFMQC,5.99 ± 0.072
7,AQNYYMY,6.88 ± 0.087
8,AQWSRIDCNTLCKAVPISLA,5.773 ± 0.056
9,ARFSKHHLTKVLFGKDYQAP,0.235 ± 0.34
10,ARKCDLFYTFFCTNIFSSVG,4.798 ± 0.039
11,ARLVYQLATRTCCFSQ,-0.032 ± 1.1
12,ARMRFKRRKCCNAIWVRSSV,0.398 ± 0.3
13,ARNSGWTATSSVYPLKTPAT,1.37 ± 0.42
14,ARNYGRTWHTSEESWYFGEV,5.8 ± 0.081
15,ARVRTMSVRFPVLSVVCYKL,3.69 ± 0.057
16,ARYAVDTSITNECSLALYTS,1.23 ± 0.24
17,ARYISCRKEFRYLESA,0.069 ± 0.37
18,ASAAYWASVHICPNLSKRKL,0.328 ± 0.65
19,ASAVV,0.402 ± 0.26
20,ASDPIMTVSRPIPMHPLY,-0.172 ± 0.76
21,ASDVSRVGVGRKMIFSFVRL,-0.031 ± 1

row,Substance,amyloid nucleation score
1,ASFCNVWGDNVWRYTLLRFK,inactive
2,ASGCLNLVCQNVCTSRSTNV,8.954 ± 0.067
3,ASHMRSDSAL,inactive
4,ASLGPRFTDRTVQSHVNTRC,0.147 ± 0.41
5,ASLSAFWSLTIVRVLPDKQV,0.722 ± 0.43
6,ASLTASAGVVFFYTPTRRYN,3.16 ± 0.14
7,ASMCIGRWIFGEYYSFNMFI,0.775 ± 0.38
8,ASSMILL,-1.18 ± 0.64
9,ASVRENFYIGLCRKCYYHNP,1.59 ± 0.16
10,ASYLCFPNNVVLSLHNHVFS,4.834 ± 0.048
11,ATGSYSMITLDIFQSNCSDA,3.51 ± 0.053
12,ATRGHIWDCSFGADYQCIPS,5.97 ± 0.063
13,AVDAVGSLMKRALRLRSMFG,1.12 ± 0.44
14,AVFRLFASVPGFNRRPGLEQ,0.314 ± 0.25
15,AVGYVMLMEMEALPISMWRG,7.027 ± 0.054
16,AVICVSSRIQFMWMLGGDGT,5.693 ± 0.045
17,AVLLPNWSAYSGKNTSYVPV,2.13 ± 0.1
18,AVPNLGSVPYVVDLMI,0.907 ± 0.29
19,AVRTLDNMGLYAWISAKVCR,-0.184 ± 0.79
20,AVSTMGIVSIVF,inactive
21,AVWAEEGMPLMLGACRRTWG,1.25 ± 0.26

row,Substance,amyloid nucleation score
1,AWDDL,0.154 ± 0.45
2,AWRGFTSIGAYYAQFGLGVA,0.431 ± 0.36
3,AWVWFS,-0.845 ± 1.1
4,AYCRGFYYIIALVSSPEQKR,0.175 ± 0.34
5,AYDIHTIREMFRSSSRLYGW,5.854 ± 0.033
6,AYFRLWVRAWTLASGE,0.938 ± 0.2
7,AYHTMGGWLRVAG,0.005 ± 1
8,AYMSYRAGMDRLQCDVS,-0.947 ± 1.1
9,AYMVASMESMDACRVLRLPS,0.87 ± 0.21
10,AYMVEWEENHSESSVA,-0.383 ± 1
11,AYYALCL,-0.92 ± 1.1
12,CAISM,4.271 ± 0.039
13,CAPVCFFRGSLRCRSRLTWR,-0.221 ± 1.1
14,CAPYTVLGYGLGTQFHAGEN,1.8 ± 0.1
15,CARMGASLWI,0.214 ± 0.65
16,CASWLVCMFRGMFRVLNTSG,2.82 ± 0.17
17,CAVVRGLTVKAVL,-0.64 ± 0.76
18,CCFRKWSSTAHRRFPCWREL,0.255 ± 0.54
19,CCIFWYCRADAINNCLARFD,7.154 ± 0.041
20,CCKITDMAPNPVETWKYSKR,0.786 ± 0.27
21,CCLTPYAIICLLARLNHTKV,-0.273 ± 0.61

row,Substance,amyloid nucleation score
1,CCNIGHNVMNY,2.9 ± 0.11
2,CCYQVSYCIVSVIDSVEYGP,6.991 ± 0.033
3,CCYVHWILGAGDREGRLWRQ,3.86 ± 0.13
4,CDGSGCTDFVVCLHK,-0.195 ± 0.31
5,CDSRCRYLAEYRFI,0.151 ± 0.27
6,CDTLTRRFVRCNVWFQCKR,3.96 ± 0.056
7,CDVLRY,-0.825 ± 0.48
8,CECVFFVQGVLRVGVLYDKF,inactive
9,CEEAVSIGLKGYEHVEKSAP,-0.313 ± 0.76
10,CEWHYRRGFMMIGVMWNAVF,0.427 ± 0.36
11,CFCPMLLLYIVRP,7.483 ± 0.023
12,CFKFRYRLGGW,4.93 ± 0.05
13,CFLCMQSLS,1.34 ± 0.33
14,CFVIGLSMNLGHAGHKVWMT,4.75 ± 0.086
15,CFVRTVFL,inactive
16,CGELY,0.506 ± 0.66
17,CGFHYFFRSTGYMAVAIIIR,inactive
18,CGGAGRMLWGLADSNAALEA,0.163 ± 0.63
19,CGMKTRQYCTMSRYVGRYVR,0.231 ± 0.24
20,CGRTDNWGNDRNASRRHGGL,0.694 ± 0.24
21,CGTGARVCYCYGFKLSSARG,0.965 ± 0.6
